Assay results: patent US20020198363A1

Target: chimera protein of europium (Eu) labeled human glycoprotein Ib α-chain and a mouse IgG2a Fc region (human; mouse) (UniProt P07359)
UniProt P07359, sequence (P07359 17-335 limits assumed, change not shown): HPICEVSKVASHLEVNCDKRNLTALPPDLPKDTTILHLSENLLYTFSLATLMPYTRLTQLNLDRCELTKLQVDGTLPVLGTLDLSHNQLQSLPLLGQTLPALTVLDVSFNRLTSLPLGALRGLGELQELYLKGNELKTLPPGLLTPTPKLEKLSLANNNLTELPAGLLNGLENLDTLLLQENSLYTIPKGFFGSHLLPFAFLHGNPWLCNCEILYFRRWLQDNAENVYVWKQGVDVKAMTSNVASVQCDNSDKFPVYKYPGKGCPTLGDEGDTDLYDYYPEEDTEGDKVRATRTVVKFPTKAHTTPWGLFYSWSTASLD

Substance	IC50 [µg/mL]
AS1051-PEG20000 (from UniProt P81508 1-126)	0.0903
AS1051-PEG5000 (from UniProt P81508 1-126)	0.0981
